The results in this text go back to patent US20140294765A1 (COMPUGEN, published 2014).

The target of assay [1] is T1, Peptide 2, amino acid residues 118-135 of SEQ ID NO:10 (human).
T1 construct: Immunisation peptide from the ECD of human LSR
T1 peptide: CQDSVRTVRVVATKQGNA
Kind of assay: ELISA, hybridoma culture supernatant. The protocol: FACS analysis was subsequently carried out with purified monoclonal Ab, 8C8, using a goat anti mouse-Alexa Fluor 488 (Invitrogen cat# A10667) as secondary Ab for detection.
Culture supernatants of the hybridoma clones were analyzed by ELISA.

Assay [2] addresses T2, mouse WT LSR protein expressed in stably transfected HEK293 or CHO-K1 cells (mouse, UniProt Q99KG5 36-594).
T2 construct: Made with a C-terminal Flag tag (pcDNA3.1); Lysate for the Western blot; also called WT-Mouse LSR-flag protein
T2 sequence: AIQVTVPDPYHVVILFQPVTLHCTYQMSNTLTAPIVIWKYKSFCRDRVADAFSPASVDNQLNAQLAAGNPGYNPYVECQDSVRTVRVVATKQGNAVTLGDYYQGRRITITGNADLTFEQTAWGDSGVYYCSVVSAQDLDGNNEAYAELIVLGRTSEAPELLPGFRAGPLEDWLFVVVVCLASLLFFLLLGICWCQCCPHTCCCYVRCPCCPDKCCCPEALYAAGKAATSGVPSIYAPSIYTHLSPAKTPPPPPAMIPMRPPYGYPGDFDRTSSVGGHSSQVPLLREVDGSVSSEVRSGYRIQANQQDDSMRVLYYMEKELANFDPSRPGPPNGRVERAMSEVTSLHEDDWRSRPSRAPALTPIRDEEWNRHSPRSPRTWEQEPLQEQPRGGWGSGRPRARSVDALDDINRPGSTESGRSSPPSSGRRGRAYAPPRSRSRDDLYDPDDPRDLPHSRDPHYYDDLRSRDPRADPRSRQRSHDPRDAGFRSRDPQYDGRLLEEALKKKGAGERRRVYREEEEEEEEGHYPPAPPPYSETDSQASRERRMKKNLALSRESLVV
Kind of assay: flow cytometry on stably transfected CHO-K1 cells, 8C8 at 1, 2.5, 5 and 10 ug/ml, Geo Mean (FL1).

B1: 8C8, mouse IgG2a monoclonal antibody against human LSR (antibody, V domains shown)
VH: DVKLVESGGGLVKLGGSLKLSCAASGFTFSSYYMSWVRQTPEKRLELVAAINSNGGSTYYPDTVKGRFTISRDNAKNTLYLQMSSLKSEDTALYYCARHDYYGSSFAMDYWGQGTSVTVSS
VL: DIQMTQTTSSLSASLGDRVTISCRASQDISNYLNWYQQKPDGTVKLLIYYTSRLHSGVPSRFSGSGSGTDYSLTISNLEQEDIATYFCQQDSKHPWTFGGGTKLEIK
notes: also called 8C8 mAb; mAb 8C8
In the case of B1, the values for the binding result in assay [1] and in assay [2] were “no binding” and “binds”, respectively.
